This is an account of results in the DeepSol protein solubility set.

The nature of the data set: soluble on expression in E. coli; label from the status in PepcDB or PDB records.
As to “MDALFNHKEFIRLSHEGNINYEKLKVPKNTELVNTADQRNSHVYLIIDGFVSISMNPESNSIYTILGKGSFVNYYSLFQGNVDDFLFKTISTCTVYKYTFKDLEYFLSMFPENFGFQFFIMRDLARHAFFKSLSSETSSSDKLELSFINIGKLHGTPYEKDSVILPKEMRTSVIAAYSNLSKSSFYKQLARLKDQGKIWKNDREWVLKNKEVYDYLKAREIDV”, the “soluble on expression in E. coli” value was “not soluble”.

For “MDASSGAAADPAEGSAPEGAASGGTGAPNGTDPLDAPNDLGNVPGESAGAGAGAASSGASRSAIMAVTAGGSQGPAVSWGEAADSRSSTWETEGRAAGSLARQAVTRSCSGCGRAGRSGSAEVMRCTTVASESPSKGPRPQAAKTSTEPRENTSLGGPRSVAPRACSGDMKPGVPITEPAAVSAVASTARAMPKSMIRGPSAARITLPGFRSRCTSPQEWMAARPSASPAPSRSTVCSGSGPCASTASCSDGPGT”, the “soluble on expression in E. coli” value is “not soluble”.

As for “MDDATNKKRKVFVSTILTFWNTDRRDFPWRHTRDPYVILITEILLRRTTAGHVKKIYDKFFVKYKCFEDILKTPKSEIAKDIKEIGLSNQRAEQLKELARVVINDYGGRVPRNRKAILDLPGVGKYTCAAVMCLAFGKKAAMVDANFVRVINRYFGGSYENLNYNHKALWELAETLVPGGKCRDFNLGLMDFSAIICAPRKPKCEKCGMSKLCSYYEKCST”, the “soluble on expression in E. coli” value is listed as “soluble”. Consider “MDDILSAALAESGLDFLCQQSSPTPSTSGSIHDDAGQSFSNNTHTPSVSQFFDETSNDSHSSSAYYTPMATPFVSTEDGGVPTSFFGMDEEDGGCTIMTTAGTSGSNNIDGIEDAGGGMYYPHVKVIPRKHTAPTVNQSEPSTPTVTIVPKKEDPLFETNTADSPTPSGDTSTTASYEGNDGLEDQETTSDRQNPMFVQTARSTDFATKKNQMAEQAHFLRFSVFWQKSGRLDTPSTSATVSPHITSSLTQRSHTSSPASSASEGTVVPPRKKGLPITTGSIVKRTVQTKDGLQTQYLKAFVNENGEKIYKLLSPVAASAVARGTLPPGMGRGGSTIGRGGTMVNKNGERLMVVKNHVGPNGQMLVKRMVSPAGTRIVANGGQGRGQPIYRGT”, for which the “soluble on expression in E. coli” value was “not soluble”. Under “MDDWKCYDFEKIKRFEKCENPATSCVKKFVHPTLPNDIPISINLQWSPWSECNDRTQTRTGQCFIRLERQLDDSDGLPENWSWLRKLNTMEKHLAFRDGVPLFNGLLASWLYEVESLESCLDTELGPKSKLSGYDNFFGNVLTSLFSNKTISGIKMSDNAFKYCIRTKTLDETNDALIGTYTEDKRTC” stands “not soluble”; under “MDELTAFNQCLAWLTHTTALPEHLDGLVLCGNSLPATATAAGQLAQDYQLPLLIIAGGVGHATKYLRQNLNLPKSQASEAELMATLVRKTGYQGSIRLDKTSTNTGSNATHARALAPTDWRHVLLVQDPLLARRTTLTFSANWSNANFIRYAPATLQLNRLQPMQFTPNTIVAGWQPAYFTELLLGEFQRLVDTPTGYGPRGQGFIAHVDIPEEVLAAARYLQSQSLHRQRLEHHHHHH”, “soluble”. For the sequence “MDFKHLTQFKDIIELDKRPVKLDERETFNVSWGIDENYQVGAAISIASILENNKQNKFTFHIIADYLDKEYIELLSQLATKYQTVIKLYHIDSEPLKALPQSNIWPVSIYYRLLSFDYFSARLDSLLYLDADIVCKGSLNELIALEFKDEYGAVVIDVDAMQSKSAERLCNEDFNGSYFNSGVMYINLREWLKQRLTEKFFDLLSDESIIKKLKYPDQDILNLMFLHHAKILPRKYNCIYTIKSEFEEKNSEYYTRFINDDTVFIHYTGITKPWHDWANYASADYFRNIYNISPWRNIPYKKAVKKHEYKEKYKHLLYQKKFLDGVFTAIKYNVMKG”, the “soluble on expression in E. coli” value is on record as “not soluble”.

In the case of “MDFLNDFDPSDDENNCKHQEKPTYLPFKPNFHEKYWYRNALKENQTATAITEIDLFRVADCYHNGDFECAENILTGLRESTKNNRTHEIMLIDSLLQCSIKKTSELSSPETSISLQFLSYYESILVDFGDQIQFLRTKAFLLSKLPFTSNYQKEFKNTMALLCQLCGSFENWQLFEIGSKYFTKLEMFGLKLKMKKVLKYEIDHSKGFIQEKLKKRLEKITKELNELEGELESNIIESIHSSINSHKDTTTVESTPNSEFRAHESRSKNKLIPVSDQPATIEDFFHRFPFLSF”, the “soluble on expression in E. coli” value is “not soluble”. Regarding “MDFSEASTSGDRVNGFAKPFPPKPREGAPPPAPPLAPGASTSQAPPPLQPPPVIESAEKFYVPGVEEKSKFRILSQQVEISNLNISTRSFNVRTEIVLLPCEKSLYQLDLHIGKCSLLPNEVPGSASKVTLNGVECEYSRRDFWKDLAQEKSISSLEPVLYEKLAENDYELQILIPKEVRKKIKHRKAVRLRVDTVVRDPPRGLQFVDFNEHDCHVFTYHTPHISGAREWTVCLDEPDQLALWELTFELEPHLVPVASGELEEKREVSENGKIRYKFHQTVPTSACNIGWAIGRFKLEPHPESPTIYTFSLPGLEPFVNHTTMYLDKMVEFLEEKLSCRFPYPTLKVVFVDQCTEEIQVYSSLLIVPTAMLYHKKIIDVVQEARQKLIFSIALQFFGCLISPAQWWHWWIPVSIARFLTSLYVETKLGTAEARWQLKRAMDDVCDYEHQWGKIVLSPPEPTKKLPLHVDPRHEYTASPLYVEAMLKKGFLTMRMLQRRIGLEPFMRVLHRVLTVGLDMSEKKTTPAAWRHLLTTTESFFRSVISVTGKEIPSFLSQFVRTGGHAAFAVKFDFNRKRNIVEIEIKQDDTEGNGRTQYTGPLSVVVQEVDGAFTHTIQIDGAVSHAEISCHSKGRKQRKKKVPLLTGEEIEIDLTNMDAESPILWLRIDPDYLLIREITISQPMFHWEYMLRYERDVIAQMEALERIQALPSAHSRSVIVDAVANEKFFYRIRYRAAFVLTFVQNRKSEALTVGTPVLINMFRESFGSKAATNIPRSNNFVVTAQNLQQYFVMQALPQAIARLRRQSGECHEDVQPFLLDLIKFNDNSTNRYSDDFYRAALYNSLASSVFPHDALPCHVELPENLSNDVRVLIKEFTYALNMDTVSPSWGRVVGAAALTGLYQLQKCGYLPLDSQLLWTFSHPNCCVQMRRCAITLIIDRIVNDPHAADTRMLDLSRILELAELEQDPSIRRMIPRLLAQTPPTIFGSENAANTAETAERLWKLCTNSSIDSCIRSGFLDVYYSLYALGAPPALGGPEESVGIHRAYVTVPNAASTFATSQWHNSGYEAARRSPPRRDFGDETMNLMQ”, the “soluble on expression in E. coli” value is given as “soluble”. Then “MDGEELREDLKEKGKTMDNDLKKSLKEAPSESYCYVLINPYVLDKDVREVDLATFLSSIFYVGKGKGERAMAYFKDACGNIQGSRKLTTIDQAWNKKGFVYKHIIWRPIIENLALAREAAMIFFFKNLAGKSNFTNKYNGSFKGESAFWSREEKCNYGVYLLETIHRSIQTNGCETVKKEDVAPRAAIQQSPRL”, with “not soluble”; and “MDGEKSGNRELYTKRVYEYDQVINQVLKHEENILSLIKKDTFGAAYKRLVLADEMIYLATLYLAKFRLSVALLGGKNENILNEARKTLYKPIIYLEEIVTDLIDAPFSEYEEGVDRISKITEKQRYYLIRKLGLVINLVIDAYGENTKWRWSFIDIEARFAVVAKNIMDLKEISQTGLNPHAEDYDTVIYHLRLVKKLFTKAADKYREKYEIVTNNISDFRTAILFLEGLRRVHMVLNEHREVEEIKRKIEIWKDKMEKDLKQKDKPKK”, with “not soluble”. Then “MDGISLYDDCVMLAYNKEVRRNCLPFTCGENDLDDFFLNDADLYADELLGKTYCWVTTEIPHRIVALFTLSNDSIKTRLISPNDKNRLQRNIVNPKRGRSYPAVLIGRLGVNLEYQGTSSHVGRQLMAFIKDWFRHEDNKTGCRFIVVDAYNEEKILRYYERNGFVPLYKTDVIEKQYYDIPQDEPLKTRLLYFDLKKD”, with “not soluble”. On to “MDGVVIKNTGSQYLVRCTDGTELYCMAKGNLRLKGIRSTNPVTVGDRVEIVPASQDGQPAYIKRIHPRRNYIIRRASNLSKESHILGANLDAAVLVCTINDPVTTTVFIDRFLATAEAYRVPVILVFNKIDCYTQEDRLQLDRLSAVYTAIGYPCCHVSAITGEGLPDLKSLLDGKLTLLAGHSGVGKSSLINALIPHADLRTGAISQAHHTGMHTTTFSQMIDFPDLSPGSALIDTPGIKGFGTLEMGEYEVSHYFPEIFAASKGCRFGNCTHTHEPGCAVLEALRRGEIAESRYISYLSILEDENAERYRPEY”, for which the “soluble on expression in E. coli” value is listed as “not soluble”. In the case of “MDHPDPNKWADCVHCGMCLEACPTYELTGHEQQSPRGRVHLIKSVAEGKLEVNEAFADPVFTCLDCRACETACPADVEVGGLIEEARGQIRQALPLEHHHHHH”, the “soluble on expression in E. coli” value is reported as “soluble”. Consider “MDIFSGLFTQVNNNNEEDLRVELQNMKPGEGVIRAEVGPSGVATFKKYFLQDGKLQFEIVKHPI”, for which the “soluble on expression in E. coli” value is recorded as “not soluble”. “MDIGINSDPPPRDWQLEKVVELSRAGIRPPTAGNREAIEAATGRPWTEWTTHDGELTGHGYAAVVNKGREEGQHYRQLGLLQAGCPTAESIYVRASPLQRTRATAQALVDGAFPGCGVAIHYANGDADPLFQTDKFAATQTDPARQLAAVKEKAGDLAQRRQALAPTIQLLKQAVCQADKPCPIFDTPWRVEQSKSGKTTISGLSVMANMVETLRLGWSENLPLSQLAWGKIAQASQITALLPLLTENYDLSNDVLYTAQKRGSVLLNAMLDGVKPEASPNVRWLLLVAHDTNIAMVRTLMNFSWQLPGYSRGNIPPGSSLVLERWRDAKSGERYLRVYFQAQGLDDLRRLQTPDAQHPMLRQEWRQPGCRQTDVGTLCPFQAAITALGQRIDRPSAPAVAMVLPKLAAALEHHHHHH”: the “soluble on expression in E. coli” value was “soluble”.

“MDIKVVKGSITEVDADVIVNPANSRGLMGGGVAVVIKRLGGEEIEREAVEKAPIPVGSAVLTTAGKLKFKGVIHAPTMEEPAMPSSEEKVRKATRAALELADKECFKIVAIPGMGTGVGGVPKEVAARAMVEEIRKFEPKCLEKVILVDIDEEMVEAWEKVLGLRLEHHHHHH”: the “soluble on expression in E. coli” value is on record as “soluble”.

With “MDITLRTLTENDLPFVKDIYDYYTLHTTVVYFVHCASIDELKNYIPVGDPVYRSFIIETPEGAPCGFCYFARFKPREAFRISVELTLYLKPEFTGRGYGKQAILRLEEIIRQEGFSNIMALISGENEASIRLFEKCGFECCANIRQVAEKFGKKLDLRMYQKIISDNSHLTP”, the “soluble on expression in E. coli” value was “not soluble”. Turning to “MDIVSVALQRYSTKAFDPSKKLTAEEADKIKTLLQYSPSSTNSQPWHFIVASTEEGKARVAKSAAGNYTFNERKMLDASHVVVFCAKTAMDDAWLERVVDQEDADGRFATPEAKAANDKGRRFFADMHRVSLKDDHQWMAKQVYLNVGNFLLGVAAMGLDAVPIEGFDAEVLDAEFGLKEKGYTSLVVVPVGHHSVEDFNAGLPKSRLPLETTLTEV”, the “soluble on expression in E. coli” value is “not soluble”. In the case of “MDKDLQSIQEVRDLLAAASKAFEEYSQFSQSQIDEIVKEICEEAQKHEVELAKLANEETGFGRWEDKVLKNRLASVGVYETIKDLKTRGIINDDKEKRITEIGVPMGIIAALIPSTNPTSTTIYKIMISLKAGNAVIVSPHPNAKDSILKTAEYLIRAAERKGAPKGLIGVIKTPTLQATQELMKHKKTSLILATGGEAMVKAAYSSGTPAIGVGPGNGPSFIERSADIRKAVKRIIDSKTFDNGVICASEQSIVTEEVIKHQVADELKRQGAYFLNKDEREKVGKILMRANNTMNPKIVGKTALYVAAMAGITVPVTTKVLISEETEVSHFNPYSREKLCPVLGFYTEETWEKACEKCIEILQNEGIGHTMSMHTNNENIIREFSLKKPVSRLLVNTPAALGGVGATTNLIPAFTLGCGTVGGSATSDNIGPLNLINIRRVAYGTKELEELKNEGVCTCACELNTDTSNSKVSENDIESIIRQVLDGIYKK”, the “soluble on expression in E. coli” value is given as “not soluble”.
